In patent US9951373B2, “Oplophorus-derived luciferases, novel coelenterazine substrates, and methods of use” (Promega Corporation, priority 2010, dated 2018):

Experiments:
[1] = tested on: cAMP response element (CRE); experiment: Transcriptional reporter, forward transfection, CRE in HEK293 cells; assay type: cell-based, human; conditions: 3 h; for baseline: 10 nM FSK
Description: HEK293 cells were plated at 15,000 cells/well in six 96-well tissue culture plates. Cells were grown in 100 μL of DMEM+10% FBS+1× non-essential amino acids (NEAA) and incubated overnight at 37° C. The cells were transiently transfected with either 10 ng or 100 ng plasmid DNA/well of pGL4.29 9B8 opt, pGL4.29 9B8 opt-P, or pGL4.29. Plasmid DNA was mixed with 850 μL of OPTI-MEMO (Invitrogen) and 32.4 μL of FUGENE® HD transfection reagent (Promega Corp.) and incubated at room temperature for 10 min. Eight μL of the transfection/reporter DNA mixture was added to the appropriate wells (2 constructs/plate). Cells were incubated for 4 hrs at 37° C. The medium was replaced with OPTI-MEM®+0.5% dialyzed FBS+1×NEAA+1× sodium pyruvate+1× Penn-Strep and incubated overnight at 37° C.
A lytic reagent containing 100 mM MES pH 6.1, 1 mM CDTA, 150 mM KCl, 35 mM thiourea, 2 mM DTT, 0.25% TERGITOLO NP-9 (v/v), 0.025% MAZUO DF 204, and 20 μM PBI-3939 was added to the cells containing pGL4.29 9B8 opt or pGL4.29 9B8 opt-P and allowed to incubated for 10 min at room temperature (100 μL lytic reagent added to 100 μL cells). ONE-GLO™ assay reagent (Promega Corp.) was added to cells containing pGL4.29 and used according to the manufacturer's protocol (100 μL reagent added to 100 μL cells). Luminescence was measured on a GLOMAX® Luminometer.

[2] = tested on: antioxidant response element (ARE); experiment: Transcriptional reporter, reverse transfection, ARE in HEK293 cells; assay type: cell-based, human; conditions: 100 ng DNA, 24 h
Description: HEK293 cells were trypsinized (T75 flask, 3 mL trypsin) and resuspended in […] (approximately 8.9×10^6 total cells) in medium containing DMEM+10% FBS+1×NEAA. Each transcriptional reporter was prepared for transfection by mixing 1.2 mL OPTI-MEM®, 12 μL transcription reporter DNA (100 ng) and 36 μL FUGENE® HD transfection reagent together and incubated at room temperature for 35 min. Following incubation, 624 μL of the transfection/reporter DNA mixture was added to 12 mL of cell suspension and mixed by inversion. After mixing, 100 μL of the cell/DNA mixture was added to wells of a 96-well plate (2 constructs/plate). The cells were incubated at 37° C. for 22 hrs. Tert-butylhydroquinone (a Nrf2 stabilizer; tBHQ; 1 μM (“baseline”) or 20 μM) or sulphoraphane, (an organosulfer antioxidant known to activate Nrf2; 1 μM (“baseline”) or 20 μM) in OPTI-MEM® was added to each well and incubated at 37° C. for 24 hrs. Cells were lysed with 100 μL lytic reagent as described above for the forward transfection. Luminescence was measured on a GLOMAX® Luminometer.

CRE [3] = experiment: Transcriptional reporter, bulk transfection, CRE in HEK293 cells; assay type: cell-based, human; conditions: HEK293, 10 nM FSK, 4 h
Description: (§1) The transcriptional reporter containing HRE and 9B8 opt-P was used in the bulk transfection of HeLa cells
(§2) HEK293, NIH3T3, or HeLa cells were plated to a single well of a 6-well tissue culture plate the day before transfection at a density of 4.5×10^5 cells/well in 3 mL complete medium (DMEM+10% FBS+1×NEAA+1× sodium pyruvate) for HEK293 cells, 3×10^5 cells/well in 3 mL complete medium (DMEM+10% fetal calf serum (FCS)+1×NEAA+1× sodium pyruvate) for NIH3T3 cells, or 9.9×10^5 cells/well in 3 mL complete medium (DMEM+10% FBS+1×NEAA) for HeLa cells. Cells were grown overnight at 37° C.
(§3) 3,300 ng of reporter plasmid DNA in 155 μL OPTI-MEM® was mixed with 9.9 μL FUGENE® HD transfection reagent, vortexed briefly, and incubated at room temperature for 10 min. The CRE transcriptional reporters were used to transfect HEK293 and NIH3T3 cells. The HRE transcriptional reporters were used to transfect HeLa cells. The reporter mixture was added to cells and mixed by gentle rocking followed by incubation at 37° C. for 6 hrs (HEK293 and NIH3T3) or 3 hrs (HeLa). […]
(§4) FSK (CRE stimulator) or 17-AAG (HRE stimulator; 17-Allylamino-demethoxy geldanamycin) in OPTI-MEM® was added to the cells (10 nM or 10 μM final concentration for FSK; 1 nM or 1 μM final concentration for 17-AAG) and incubated at 37° C. for 4 hrs (FSK) or 6 hrs (17-AAG). […] Luminescence was measured on a GLOMAX® Luminometer.

CRE [4] = experiment: Transcriptional reporter, bulk transfection, CRE in NIH3T3 cells; assay type: cell-based; conditions: NIH3T3, 10 nM FSK, 4 h
Description: as §1, §2, §3, §4

[5] = tested on: heat shock response element (HRE); experiment: Transcriptional reporter, bulk transfection, HRE in HeLa cells; assay type: cell-based; conditions: 6 h
Description: as §1, §2, §3, §4

B1: 9B8 opt-P: 9B8 opt further comprising the PEST protein degradation sequence (SEQ ID NO: 65) (protein)
chain: MVFTLEDFVGDWRQTAGYNLDQVLEQGGLSSLFQKLGVSVTPIQKIVLSGENGLKIDIHVIIPYEGLSGYQMGQIEKIFKVVYPVDDHHFKVILHYGTLVIDGVTPNMIDYFGRPYEGIAVFDGKKITVTGTLWNGNKIIDERLINPDGSLLFRVTINGVTGWRLCERILANSHGFPPEVEEQAAGTLPMSCAQESGMDRHPAACASARINV
modifications: PEST degradation sequence
In the case of B1, the baseline ([1]; 10 ng DNA) is reported as 11179 RLU, the “RLU (10 µM FSK)” value ([1]; 10 ng DNA) is reported as 1,353,459 RLU and the Response ([1]; 10 ng DNA) is reported as 121. The baseline ([1]; 100 ng DNA) was 122,071 RLU, the “RLU (10 µM FSK)” value ([1]; 100 ng DNA) was 20,544,753 RLU and the Response ([1]; 100 ng DNA) was 168. For the same molecule, the “RLU (20 μM sulphoraphane)” value [2] was 3,940,000 RLU, the “RLU (20 μM tBHQ)” value [2] was 8,460,000 RLU and the baseline ([2]; 1 μM sulphoraphane) was 258,406 RLU. For the same molecule, the baseline ([2]; 1 μM tBHQ) was 317,238 RLU, the baseline (CRE [3]) was 3,960,000 RLU and the baseline (CRE [4]) was 410,461 RLU. The baseline [5] was 278,118 RLU.
